What was measured:
[1] = biological target: T1, tagged rhesus monkey (Macaca mulata) PCSK9 (rhesus monkey (Macaca mulata), UniProt A8T666 31-692); assay: SPR, mAb captured on anti-hFc, 37C
T1 construct: also called mmPCSK9-mmh; mmPCSK9

[2] = biological target: T2, cynomolgus monkey (Macaca fascicularis) PCSK9, myc-myc-his tagged (cynomolgus monkey (Macaca fascicularis), UniProt A8T662 31-692 (Macaca nemestrina entry), limits assumed); assay: SPR, mAb captured on anti-hFc, 37C
T2 construct: also called mfPCSK9-mmh; mfPCSK9
T2 sequence (A8T662 31-692 limits assumed): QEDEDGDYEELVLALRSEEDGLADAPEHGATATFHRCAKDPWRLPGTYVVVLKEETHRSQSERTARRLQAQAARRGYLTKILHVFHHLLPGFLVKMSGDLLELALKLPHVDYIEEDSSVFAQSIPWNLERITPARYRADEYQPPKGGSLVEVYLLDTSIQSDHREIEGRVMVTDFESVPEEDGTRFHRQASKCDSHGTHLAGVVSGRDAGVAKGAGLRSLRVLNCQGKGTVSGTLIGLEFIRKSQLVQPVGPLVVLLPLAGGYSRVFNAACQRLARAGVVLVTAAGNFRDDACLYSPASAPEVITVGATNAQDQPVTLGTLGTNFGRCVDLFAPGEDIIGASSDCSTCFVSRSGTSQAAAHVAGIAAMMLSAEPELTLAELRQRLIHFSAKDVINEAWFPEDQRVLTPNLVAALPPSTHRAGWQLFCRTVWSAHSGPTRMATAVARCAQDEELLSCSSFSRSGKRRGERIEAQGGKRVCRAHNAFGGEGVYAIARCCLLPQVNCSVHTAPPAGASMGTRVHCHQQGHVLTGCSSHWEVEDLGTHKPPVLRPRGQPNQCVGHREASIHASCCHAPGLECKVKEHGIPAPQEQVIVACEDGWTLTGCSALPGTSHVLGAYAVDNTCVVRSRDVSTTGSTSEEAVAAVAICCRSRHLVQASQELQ

Human PCSK9-myc-myc-his [3] = biological target: T3, Human PCSK9-myc-myc-his (human, UniProt Q8NBP7 31-692); assay: SPR, mAb captured on anti-hFc, 37C
T3 construct: also called hPCSK9-mmh; hPCSK9

hPCSK9(D374Y)-mmh [4] = biological target: T4, hPCSK9(D374Y)-mmh (human, UniProt Q8NBP7 31-692); assay: SPR, mAb captured on anti-hFc, 37C
T4 construct: also called hPCSK(D374Y)-mmh

[5] = biological target: T5, Chimeric protein #3 (mPro-mCat-hC-term-mmh) (mouse; human); assay: SPR, mAb captured on anti-hFc, 100 nM antigen
T5 chain: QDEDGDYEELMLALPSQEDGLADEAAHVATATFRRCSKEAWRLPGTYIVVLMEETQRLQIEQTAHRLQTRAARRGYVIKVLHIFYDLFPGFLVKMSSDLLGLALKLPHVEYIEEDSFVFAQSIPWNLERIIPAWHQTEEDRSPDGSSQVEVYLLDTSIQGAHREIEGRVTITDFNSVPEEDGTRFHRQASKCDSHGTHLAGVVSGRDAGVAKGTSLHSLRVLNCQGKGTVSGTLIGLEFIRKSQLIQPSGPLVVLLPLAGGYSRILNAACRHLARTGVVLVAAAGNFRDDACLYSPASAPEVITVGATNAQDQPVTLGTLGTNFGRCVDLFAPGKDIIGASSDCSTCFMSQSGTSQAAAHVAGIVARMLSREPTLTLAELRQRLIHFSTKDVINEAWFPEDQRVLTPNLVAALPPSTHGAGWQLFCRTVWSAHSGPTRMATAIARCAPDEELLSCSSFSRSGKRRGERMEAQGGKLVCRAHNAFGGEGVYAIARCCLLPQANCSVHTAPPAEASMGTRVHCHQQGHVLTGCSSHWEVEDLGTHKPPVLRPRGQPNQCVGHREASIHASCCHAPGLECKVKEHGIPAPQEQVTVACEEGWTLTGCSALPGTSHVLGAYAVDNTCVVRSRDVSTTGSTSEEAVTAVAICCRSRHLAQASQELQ
Procedure: Changes in RU due to the binding of each protein to the mAb surface was determined.

[6] = biological target: T5, Chimeric protein #3 …; assay: ELISA, mAb coated, 1.2 nM antigen;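 also: antigen allowed to bind for 1 h at room temperature, then captured protein revealed with an HRP-linked polyclonal anti-myc antibody and read as optical density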
Source text: (§1) After 1 hr binding at RT, the plate was washed and bound test protein detected using HRP-conjugated anti-myc polyclonal antibody (++=OD>1.0; +=OD 0.4-1.0; −=OD<0.4).

[7] = biological target: T6, mouse PCSK9, myc-myc-his tagged (mouse, UniProt Q80W65 35-694); assay: ELISA, mAb coated, 1.2 nM antigen;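 also: antigen allowed to bind for 1 h at room temperature, then captured protein revealed with an HRP-linked polyclonal anti-myc antibody and read as optical density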
T6 construct: also called mPCSK9-mmh; mPCSK9
Source text: as §1

hPCSK9(D374Y)-mmh [8] = biological target: T4, hPCSK9(D374Y)-mmh; assay: ELISA, mAb coated, 1.2 nM antigen;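 also: antigen allowed to bind for 1 h at room temperature, then captured protein revealed with an HRP-linked polyclonal anti-myc antibody and read as optical density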
Source text: as §1

[9] = biological target: T1, tagged rhesus monkey (Macaca mulata) …; assay: SPR, mAb captured on anti-hFc, 25C
[10] = biological target: T7, his-tagged Syrian golden hamster (Mesocricetus auratus) PCSK9 (Syrian golden hamster (Mesocricetus …)); assay: SPR, mAb captured on anti-hFc, 25C
T7 construct: also called maPCSK9-h; maPCSK9
T7 chain: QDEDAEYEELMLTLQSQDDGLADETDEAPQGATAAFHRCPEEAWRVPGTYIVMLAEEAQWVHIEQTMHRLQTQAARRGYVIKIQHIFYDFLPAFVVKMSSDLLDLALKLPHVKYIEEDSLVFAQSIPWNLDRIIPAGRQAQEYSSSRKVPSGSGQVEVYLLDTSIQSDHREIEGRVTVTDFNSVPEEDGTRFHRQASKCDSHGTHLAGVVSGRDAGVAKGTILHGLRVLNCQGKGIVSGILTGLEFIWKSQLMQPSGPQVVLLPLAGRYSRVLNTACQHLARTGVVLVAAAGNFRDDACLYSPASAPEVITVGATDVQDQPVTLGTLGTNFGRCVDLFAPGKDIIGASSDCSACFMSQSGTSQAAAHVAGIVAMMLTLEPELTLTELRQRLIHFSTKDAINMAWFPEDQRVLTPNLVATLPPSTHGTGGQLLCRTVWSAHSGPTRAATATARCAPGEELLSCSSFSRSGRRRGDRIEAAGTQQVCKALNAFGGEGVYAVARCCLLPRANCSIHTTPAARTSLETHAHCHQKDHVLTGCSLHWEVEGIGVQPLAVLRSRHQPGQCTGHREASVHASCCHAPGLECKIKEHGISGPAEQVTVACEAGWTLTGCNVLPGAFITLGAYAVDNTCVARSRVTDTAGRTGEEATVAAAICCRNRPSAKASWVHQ

[11] = biological target: T2, cynomolgus monkey (Macaca fascicularis) …; assay: SPR, mAb captured on anti-hFc, 25C
[12] = biological target: T6, mouse PCSK9, myc-myc-his tagged; assay: SPR, mAb captured on anti-hFc, 25C
Target sequence in this assay (Q80W65 35-694 limits assumed): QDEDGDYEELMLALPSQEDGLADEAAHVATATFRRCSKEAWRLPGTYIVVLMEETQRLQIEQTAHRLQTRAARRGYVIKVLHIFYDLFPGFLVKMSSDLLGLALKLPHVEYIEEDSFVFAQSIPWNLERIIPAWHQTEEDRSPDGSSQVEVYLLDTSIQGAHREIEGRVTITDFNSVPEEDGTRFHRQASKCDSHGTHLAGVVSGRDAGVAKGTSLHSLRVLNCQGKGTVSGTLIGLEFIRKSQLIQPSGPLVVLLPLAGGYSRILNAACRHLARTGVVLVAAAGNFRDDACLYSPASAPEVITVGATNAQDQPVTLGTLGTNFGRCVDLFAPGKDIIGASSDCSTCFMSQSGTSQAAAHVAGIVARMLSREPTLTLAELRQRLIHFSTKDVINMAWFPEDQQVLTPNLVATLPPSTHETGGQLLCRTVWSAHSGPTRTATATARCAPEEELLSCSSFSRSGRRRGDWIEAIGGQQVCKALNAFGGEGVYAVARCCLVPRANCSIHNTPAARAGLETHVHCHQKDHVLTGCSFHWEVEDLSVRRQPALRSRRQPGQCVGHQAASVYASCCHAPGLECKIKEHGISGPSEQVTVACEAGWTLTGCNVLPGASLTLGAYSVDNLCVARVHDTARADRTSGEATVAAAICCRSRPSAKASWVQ

Human PCSK9-myc-myc-his [13] = biological target: T3, Human PCSK9-myc-myc-his; assay: SPR, mAb captured on anti-hFc, 25C
hPCSK9(D374Y)-mmh [14] = biological target: T4, hPCSK9(D374Y)-mmh; assay: SPR, mAb captured on anti-hFc, 25C
[15] = biological target: T8, rat (Rattus norvegicus) PCSK9, myc-myc-his tagged (rat (Rattus norvegicus), UniProt P59996 31-691); assay: SPR, mAb captured on anti-hFc, 25C
T8 construct: also called rPCSK9-mmh; rPCSK9
T8 sequence (P59996 31-691 limits assumed): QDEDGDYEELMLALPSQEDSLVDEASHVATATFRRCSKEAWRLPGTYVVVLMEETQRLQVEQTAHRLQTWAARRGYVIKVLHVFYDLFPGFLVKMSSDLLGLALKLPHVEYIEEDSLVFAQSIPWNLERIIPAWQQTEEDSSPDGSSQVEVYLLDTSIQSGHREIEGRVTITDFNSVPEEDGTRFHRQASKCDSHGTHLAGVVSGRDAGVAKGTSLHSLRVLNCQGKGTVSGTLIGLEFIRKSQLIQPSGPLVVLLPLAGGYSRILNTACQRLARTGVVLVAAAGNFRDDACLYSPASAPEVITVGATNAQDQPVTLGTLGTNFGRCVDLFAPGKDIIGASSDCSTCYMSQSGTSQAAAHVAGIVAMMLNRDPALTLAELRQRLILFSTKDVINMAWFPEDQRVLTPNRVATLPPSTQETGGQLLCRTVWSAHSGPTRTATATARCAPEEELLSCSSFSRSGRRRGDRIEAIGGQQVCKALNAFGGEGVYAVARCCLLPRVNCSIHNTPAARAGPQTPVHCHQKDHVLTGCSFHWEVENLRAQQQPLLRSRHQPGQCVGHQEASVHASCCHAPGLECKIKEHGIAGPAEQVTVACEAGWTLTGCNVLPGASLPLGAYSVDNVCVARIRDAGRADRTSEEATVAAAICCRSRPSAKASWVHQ

[16] = biological target: T5, Chimeric protein #3 …; assay: ELISA, mAb coated, 1.7 nM antigen

T1 sequence (A8T666 31-692 limits assumed): as the sequence (A8T662 31-692 limits assumed) above, with A607P, E639K counted along it

B1: H1M300N (antibody, V domains shown)
VH: EMQLVESGGGLVQPGGSLRLSCAASGFTFSSHWMKWVRQAPGKGLEWVANINQDGSEKYYVDSVKGRFTISRDNAKNSLFLQMNSLRAEDTAVYYCARDIVLMVYDMDYYYYGMDVWGQGTTVTVSS
VL: not shown
notes: Fully human version made in CHO cells
Binder B1 has a Kd [1] of 1.6 nM, a T1/2 [1] of 26 min and a Kd [2] of 3.8 nM. The T1/2 [2] was 11 min, the Kd (Human PCSK9-myc-myc-his [3]) was 2.4 nM and the T1/2 (Human PCSK9-myc-myc-his [3]) was 22 min. For the same binder, the Kd (hPCSK9(D374Y)-mmh [4]) was 2.2 nM and the T1/2 (hPCSK9(D374Y)-mmh [4]) was 14 min.

B2: H1H316P (antibody, V domains shown)
VH: EVQLVESGGGLVQPGGSLRLSCAASGFTFNNYAMNWVRQAPGKGLDWVSTISGSGGTTNYADSVKGRFIISRDSSKHTLYLQMNSLRAEDTAVYYCAKDSNWGNFDLWGRGTLVTVSS
VL: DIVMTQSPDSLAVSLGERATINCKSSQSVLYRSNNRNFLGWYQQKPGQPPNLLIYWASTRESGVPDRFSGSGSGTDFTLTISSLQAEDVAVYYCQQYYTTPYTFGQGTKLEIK
notes: Fully human mAb made in CHO cells; also called mAb316P
B2 was tested, and the “change in RU” value [5] was 467 RU, the OD [6] was greater than 1 od and the OD [7] was greater than 1 od. The OD (hPCSK9(D374Y)-mmh [8]) was greater than 1 od, the Kd [9] was 0.55 nM and the T1/2 [9] was 92 min. The Kd [10] was 6.81 nM, the T1/2 [10] was 5 min and the Kd [11] was 0.52 nM. The T1/2 [11] was 60 min, the Kd [12] was 2.3 nM and the T1/2 [12] was 11 min. The Kd (Human PCSK9-myc-myc-his [13]) was 0.58 nM, the T1/2 (Human PCSK9-myc-myc-his [13]) was 36 min and the Kd (hPCSK9(D374Y)-mmh [14]) was 1.69 nM. For the same binder, the T1/2 (hPCSK9(D374Y)-mmh [14]) was 15 min, the Kd [15] was 14.5 nM and the T1/2 [15] was 2 min. For the same binder, the OD [16] was greater than 1.5 od.
